From publication PMC3053351

How the values were obtained:
Assay in all cases: flow cytometry on cells
[1] = target: Mamu-KIR3DL05*003 (rhesus macaque)
[2] = target: Mamu-KIR3DL05*005 (rhesus macaque)
[3] = target: Mamu-KIR3DL05*008 (rhesus macaque)
[4] = target: Mamu-KIR3DL05*010 (rhesus macaque)
[5] = target: Mamu-KIR3DL05*004 (rhesus macaque)
[6] = target: Mamu-KIR3DL05*001 (rhesus macaque)

Substance | MFI of tetramer staining divided by MFI of HA staining [1] | MFI of tetramer staining divided by MFI of HA staining [2] | MFI of tetramer staining divided by MFI of HA staining [3] | MFI of tetramer staining divided by MFI of HA staining [4] | MFI of tetramer staining divided by MFI of HA staining [5] | MFI of tetramer staining divided by MFI of HA staining [6]
Mamu-A1*00201 tetramer folded with SIV Env_(788-795) RY8 (from UniProt P61769 21-119) (peptide-MHC) | 0.06 | 0.03 | 0.07 | 0.07 |  | 
Mamu-A1*00201 tetramer folded with SIV Gag_(71-79) GY9 (from UniProt P61769 21-119) (peptide-MHC) | 1.57 | 0.55 | 1.49 | 1.55 | 1.99 | 0.02
Mamu-A1*00201 tetramer folded with SIV Nef_(159-167) YY9 (from UniProt P61769 21-119) (peptide-MHC) | 0.03 | 0.01 | 0.03 | 0.03 | 0.13 | 
